In US20100173334A1:

Assays:
[1] = target: haptoglobin β chain derived from cancer (serum or cells of cancer patients) (human) (UniProt P00738); experiment: serum Western blot; urothelial cancer, muscle invasive or advanced (n=19)
[2] = target: haptoglobin β chain derived from cancer (serum or cells of cancer patients) (human) (UniProt P00738); experiment: serum Western blot; urothelial cancer, superficial (n=18)
[3] = target: haptoglobin β chain derived from benign disease (serum of patients with benign prostatic disease) (human) (UniProt P00738); experiment: sandwich ELISA: RM2 captured on anti-mouse IgM plate, diluted serum, detection with rabbit anti-haptoglobin polyclonal; mean of 12 sera of benign prostatic disease
[4] = target: haptoglobin β chain derived from cancer (serum or cells of cancer patients) (human) (UniProt P00738); experiment: serum Western blot; the same 15 patients after radical prostatectomy
[5] = target: haptoglobin β chain derived from cancer (serum or cells of cancer patients) (human) (UniProt P00738); experiment: serum Western blot; 15 prostate cancer patients before radical prostatectomy
[6] = target: haptoglobin β chain derived from cancer (serum or cells of cancer patients) (human) (UniProt P00738); experiment: serum Western blot, Scion image densitometry; mean of 62 patients with early prostate cancer
[7] = target: haptoglobin β chain derived from benign disease (serum of patients with benign prostatic disease) (human) (UniProt P00738); experiment: serum Western blot, Scion image densitometry; mean of 43 patients with benign prostatic disease
[8] = target: haptoglobin β chain derived from cancer (serum or cells of cancer patients) (human) (UniProt P00738); experiment: sandwich ELISA: RM2 captured on anti-mouse IgM plate, diluted serum, detection with rabbit anti-haptoglobin polyclonal; mean of 12 sera of prostate cancer

RM2 reaction (the value normalized to RM2 reaction to 75 kDa protein) (ratio of band density to the 75 kDa band) [1]: 0.96
RM2 reaction (the value normalized to RM2 reaction to 75 kDa protein) (ratio of band density to the 75 kDa band) [2]: 0.31
absorbance at 450 nm (absorbance at 450 nm) [3]: 0.58
RM2 reaction level to GPX (normalized to 75 kDa band) (ratio of band density to the 75 kDa band) [4]: 0.6
RM2 reaction level to GPX (normalized to 75 kDa band) (ratio of band density to the 75 kDa band) [5]: 0.92
RM2 reaction level to GPX (normalized to 75 kDa band) (ratio of band density to the 75 kDa band) [6]: 0.96
RM2 reaction level to GPX (normalized to 75 kDa band) (ratio of band density to the 75 kDa band) [7]: 0.35
absorbance at 450 nm (absorbance at 450 nm) [8]: 1.1
Substance: monoclonal antibody RM2
